The record followed here is CN115536746A (NANJING SANHOME PHARMACEUTICAL CO LTD, dated 2022).

For assay [1], the target named is T1, 猴源CRTAM蛋白全长 on CHO-K1-cCRTAM cells (猴源 (食蟹猴, cynomolgus monkey), UniProt O95727 18-393 (human entry)).
T1 construct: also called 细胞表面食蟹猴CRTAM
T1 chain: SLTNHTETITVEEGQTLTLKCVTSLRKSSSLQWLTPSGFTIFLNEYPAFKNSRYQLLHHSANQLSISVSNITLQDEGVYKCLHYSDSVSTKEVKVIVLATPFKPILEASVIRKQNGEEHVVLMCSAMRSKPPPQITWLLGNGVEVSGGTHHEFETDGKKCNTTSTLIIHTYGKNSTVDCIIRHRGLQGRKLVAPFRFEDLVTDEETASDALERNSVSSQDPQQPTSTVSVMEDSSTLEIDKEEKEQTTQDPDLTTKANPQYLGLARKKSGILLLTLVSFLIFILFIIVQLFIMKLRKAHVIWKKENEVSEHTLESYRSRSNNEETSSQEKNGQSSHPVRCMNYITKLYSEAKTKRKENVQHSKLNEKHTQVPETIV
The assay is described as follows: flow cytometry on CHO-K1-cCRTAM cells. For orientation: In flow cytometry, cells or beads pass a laser one at a time.

Assay [2] deals with T2, 人源CRTAM蛋白全长 on CHO-K1-hCRTAM cells (human, UniProt O95727 18-393).
T2 construct: also called 细胞表面hCRTAM
T2 sequence: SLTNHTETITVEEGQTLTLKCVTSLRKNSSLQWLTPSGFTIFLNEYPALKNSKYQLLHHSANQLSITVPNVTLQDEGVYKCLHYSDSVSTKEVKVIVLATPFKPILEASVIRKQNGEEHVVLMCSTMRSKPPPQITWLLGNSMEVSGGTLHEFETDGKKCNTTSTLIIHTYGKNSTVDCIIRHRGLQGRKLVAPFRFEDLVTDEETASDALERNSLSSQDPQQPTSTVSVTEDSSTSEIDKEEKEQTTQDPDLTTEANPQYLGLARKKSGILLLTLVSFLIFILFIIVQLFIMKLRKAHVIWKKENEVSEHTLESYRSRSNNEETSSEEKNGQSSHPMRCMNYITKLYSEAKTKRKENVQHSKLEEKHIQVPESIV
The assay is described as follows: flow cytometry on CHO-K1-hCRTAM cells.

B1: HuC110-34 (antibody, V domains shown)
VH: QVQLVQSGAEVKKPGASVKVSCKASGYTFTNNDINWVKQAPGQRLEWIGWIYPRDGSTQYNEKFRGRATITVDTSASTAYMELSSLRSEDTAVYFCARGLVDYWGQGTLVTVSS
VL: DVVMTQSPDSLAVSLGERATINCRSSQSLVHSNKNTYLHWYLQKPGQPPKLLIYKVSNRFSGVPDRFSGSGSGTDFTLTISSLQAEDVAVYYCSQSTRVPWTFGGGTKLEIK
notes: also called HuC110-34-biotin; 抗CRTAM人源化抗体HuC110-34
In the case of B1, the EC50 in assay [1] is 0.0507 µg/mL; in assay [2], 0.0417 µg/mL.

B2: 人源化抗体5A11 (WO2019/086878) (antibody, human IgG1, lambda, V domains shown)
VH: EVQLVESGGGLVQPGGSLKLSCAASGFTFSDAAMYWVRQASGKGLEWVARIRTKTNNYAAHYVESVKGRFTVSRDDSKNTVYLQMNSLKTEDTAMYYCTSVPQGTQDYWGQGTLVTVSS
VL: SYELTQPSSVSVSPGQTARITCSGDVLSKRYAQWSQQKPGQAIVSVIYKDSERPSGIPERFSGSSSGTTATLTISGAQVEDEADYYCLSTYADDNLPVFGGGTKLTVLG
notes: also called 阳性对照抗体; 对照抗体
Regarding B2, the 50% effective concentration (EC50) in assay [2] was 0.0607 µg/mL.

B3: HuC94-31 (antibody, V domains shown)
VH: EVQLLESGGGLVQPGGSLRLSCAASGFTFSTSAMSWVRQAPGKGLEWVATISSGGDYTYYSDNVKGRFTISRDNSKSTLYLQMNSLRAEDTAVYYCTLGYDEADYWGQGSLLTVSS
VL: DIQMTQSPSSLSASVGDRVTITCRASQDISNYLNWYQQKPGKAPKLLIYYTSRLHSGVPSRFSGSGSGTDYTFTISSLQPEDIATYYCQQGDTFPWTFGGGTKLEIK
notes: also called HuC94-31-biotin; 抗CRTAM人源化抗体HuC94-31
For the molecule B3, in assay [1], the 50% effective concentration (EC50) was determined as 0.035 µg/mL.

B4: HuC124-42 (antibody, V domains shown)
VH: QVQLVQSGAEVKKPGSSVKVSCKASGYSFSNYWIEWVRQAPGQGLEWIGEILPGVPTIYYNAKFKDRVTFTADKSTSTAYMELSSLRSEDTAVYYCSRDPWFAYWGQGTLVTVSA
VL: EIVLTQSPATLSVSPGERATFSCRASQSIGTSLHWFQQKPGQAPRLLIKYASQSISGIPARFSGSGSGTEFTLTISSVQSEDFAVYYCQQSNNWPFTFGGGTKLEIK
notes: also called HuC124-42-biotin; 抗CRTAM人源化抗体HuC124-42
In turn, B4 registered a half-maximal effective concentration (EC50) in assay [1] of 0.0904 µg/mL.

What is called EC50 is the concentration at which the effect is half-maximal. Read a low EC50 as an effect from little substance.
